The DeepSol protein solubility set

Test: soluble on expression in E. coli; label from the status in PepcDB or PDB records

Sequence | soluble on expression in E. coli
MTNIRVAIVGYGNLGRSVEKLIAKQPDMDLVGIFSRRATLDTKTPVFDVADVDKHADDVDVLFLCMGSATDIPEQAPKFAQFACTVDTYDNHRDIPRHRQVMNEAATAAGNVALVSTGWDPGMFSINRVYAAAVLAEHQQHTFWGPGLSQGHSDALRRIPGVQKAVQYTLPSEDALEKARRGEAGDLTGKQTHKRQCFVVADAADHERIENDIRTMPDYFVGYEVEVNFIDEATFDSEHTGMPHGGHVITTGDTGGFNHTVEYILKLDRNPDFTASSQIAFGRAAHRMKQQGQSGAFTVLEVAPYLLSPENLDDLIARDV | soluble
MSELIKHSSNFLAAISPDNDCSITATNDFEAMMSWLNGYKKKPINTSRNYAREVKRYLIWLSCQGLTLAQVKIEDVYEYFNLLERPTTEWIIPDKKTDKIYPTQLIKYGGLSNRSINYTHTVLGLFYSFLQDAGYLTKNPINLVKKALEHHHHHH | not soluble
MGSDKIHHHHHHMPKSVRAENISRILKRIMKSPVSRVELAEELGLTKTTVGEIAKIFLEKGIVVEEKDSPKGVGRPTKSLKISPNCAYVLGIEVTRDEIAACLIDASMNILAHEAHPLPSQSDREETLNVMYRIIDRAKDMMEKLGSKLSALTVAAPGPIDTERGIIIDPRNFPLSQIPLANLLKEKYGIEVWVENDADMGAVGEKWYTKRDDSFAWILTGKGIGAGIIIDGELYRGENGYAGEIGYTRVFNGNEYVFLEDVCNENVVLKHVLSMGFSSLAEARDSGDVRVKEYFDDIARYFSIGLLNLIHLFGISKIVIGGFFKELGENFLKKIKIEVETHLLYKHSVDMSFSKVQEPVIAFGAAVHALENYLERVTTS | soluble
GPLENWFTEFDIKPLASASIAQVHTARLKDTNQEVVLKVIRPDIRPVIDSDLKLMHRMARIVAGAMPEARRLKPVEVVREYEKTLLDELDLRREAANAIQLRRNFEGSEELYVPEVFPDFS | not soluble
MANVNTFSIVKNVKLDLGIEDDNQDQLLEMLLNRITDHFKANYGVLEIDNAFSFVLEDCLIARFNRRGSERAKTEEVEGHKTTYYDHLNEFEPYDAMIMAKLNLIKDKSRKGGLYFL | not soluble
MSSVPSAHSEIVGALYRDHRGWLLAWLRRNVACPQRAQDLSQDTFVRLLGRDELQLPREPRAFLATIAKGLMFDYFRRAALEQAYLGELLQVPEAEQPSPEEQLLILEDLKAIDRMLGTLSSKARAAFLYNRLDGLSHGEIAERLGVSVSRVRQYLAQAVRQCYVALYGEPT | not soluble
MIFLNRERKGETNDHFDVNRVKFDDLGIPQDTGGLNRIRFKGENLGIMPTQLGHITPWLYRHFEYAYHVALQFNQHQKFQKLQKLRKLQKELPIAERAGEIVELLKTNQVLIVAGDTGCGKSTQVPQYLLKAGFTGVACTQPRRIACTALARRVAYETLNQYGSEVAFQIRFETTKSQKTKLLFLTEGLLLRQMEKDSLLEKYNVIILDEVHERHLTSDLLIGLLRDLCTKRDDLKLILMSATINLDLFKGYFEGAPVVQVPGRLFPIDVRWHPIKQFIDQSDKKTHKIDPEPYLKILELIDKQFPSTQRGDALIFLNGVAEISMVAEHLKNYAELTNGWIILMLHSTLSVEEQDKVFDQAPVGIRKCILSTNVAETSVTIDGIRFVIDSGKVNLIKHEPGTGTQKLTEFWVSKASANQRKGRAGRTGPGICYRLYSQEQFEKMDDFTVSEINRVSLQEMALKMISLNLGLDPRTFPFIEKPSEDVLNEGLEVLKFQRVLRSDRGDILTLTALGNMVSKLPVEVPIAKMLVYGCVVDELEVMLTVAAGLSVQSPFTNRSYRELEIVERRASLTSPLGDPFTLISIFREWVLQKAFEGTARRWTMENGIDEHRLYEISKLRAQYRQILEDAGLVEKASAAETGEDDSRQRRIDQGEKRKLFDLKKSQRNNDRRQKVLNANKHFDKILEDKEEEDLEAEKDPLKADVKTVEFLLSHKQRDVENIRKTHKISRKTAEVVRVIIAAGLYPNFSILDPVNKYGYGQEMFTHTRLKPFTQIHPNSSIAQYHPETIDPRQGSDGFSRLHQIPFYGLLLETTKPYICNVMPVPAVYTLLVAQKIVIEDDWSQLSIDDFLELRFRSSTDCRSVLLDAKEIRYELTKGLAAKLVGEAGFSGRRRLAKYIDLLNQSIVEKGIEVAVRRNVHPPKVLTGIGIHSPDGGIDKEEDVDDLVQRFERDQEPVHSAREEELEDQKVLDELRADVMCPPTRDMIEEAEKLKELKKKEIPKESYYEKLLKRQKAKEDDEKTEKKPKLEPLDTMEE | soluble
MSLKITDVKVWLVQGIKYNWTLLKIYTDEGYTGVGEATNWPGSPIVFEAAKHVGQRIIGLDPMKTDFIWTKLYRDLNWIGPYGASLCAISGIDMALLDLKAKVLGVPCYELLGGAYRKDIQLYANYWFTGGGHNEADYAAQARRVMDAGFTGLKFDPFAHTNYFYGEDLASNLTLTAEQQDLAFNVSKAVREAVGSECDIMIETHAMLNYRVAVKMAERLAKLDITWYEEPAGPESSQTLRAMRERIPSDVAICVGERHYTRFGIRSLLEKHVCDVIMPDITRCGGPSEMKRMATMAEAYNVLIAPHNPNGPLSTLASSHVCAAIPNFFRQEFMFNDVPWRDTVIDHPIAEMVYDGHLHLSDRPGLGVDLVEEEMEKHPGITTDAPDNFYIEGHHHHHH | soluble
VELKVKRFPISRYQANNEASDDLIKGAFVGLTNVTFSFAGNIVRVVDTGMDILYNLQPIDEFANSITNVSKTVYKTLKKN | not soluble
MWFRNLLVYRLTQDLQLDADSLEKALGEKSARPCASQELTTYGFTAPFGKGPDAPLVHVSQDFFLISARKEERILPGSVVRDALKEKVDEIEAQQMRKVYKKERDQLKDEIVQTLLPRAFIRRSSTFAAIAPSLGLILVDSASAKKAEDLLSTLREALGSLPVRPLSVKVAPTATLTDWVKTQEAAGDFHVLDECELRDTHEDGGVVRCKRQDLTSEEIQLHLTAGKLVTQLSLAWSDKLSFVLDDKLAVKRLRFEDLLQEQAEKDGGEDALGQLDASFTLMMLTFAEFLPALFEALGGEEIPQGV | soluble
MGSDKIHHHHHHMSLSRINIGSFRNITSASLQPCDGLNLIYGQNGSGKTSILEAIYFLGMGRSFRSHLSQRVINNDDDKLTLFAHLIDADRDCKIGLRRHRSGEIEVKIDGEKVKRLSTLAETLPIQVITPESFSLLFEGPKARRQFIDWGAFHSDPHFYQAWVNTRKVLKQRNQLLRNQSSYNQIQFWDKELVRYAEQVTDIRNQYVDSLNVLLKGIIGVFLPRIDIKVSFTRGWDSKTDFAQLLENQYSRDLAAGNTGSGPHKADLRLRVGNLPAQDALSRGQLKLLVCALRIAQGKLLKQQLDKNSIYLVDDLPSELDAQHRQLLLQLLTETGAQIFVTAIDPQAIVDSLSSPPNRMFHVEQGLVTVIE | not soluble
MRKLKYHEKKLIKKVNFLEWKREGNHRENEITYRYHMGSRDDYKKYSGLCRMVQKLTNIMKQMDPADPFRIQMTDMLLEKLYNMGVIPTRKSLTLTERLSVSSFCRRRLSTVLVHLKFAEHHKEAVTYIEQGHVRVGPETITDPAFLVTRNMEDFITWVDSSKIKRKVLEYNDTLDDYDMLA | not soluble
MGSDKIHHHHHHMDVIQLSNDGRCRWLEKQVMNKIFPQAIRSAKIKDIPTQYMIIDWISNDNGKVGVDLKWFKKLGVPYVKTYNDLPEGNDFVVVNTGYDSIVHEEKVLREKGVEILDKPCPFVRKLRKEFEKIDDSYQYVLLCESNHIIIKNFATIFPRDMILIQMGNYKEKLLEQSNGKPMMFISYVTFLKKHSIQVFDFINKTFPGKDHKMVDTQCMWAAGRLSPIDEIRNMSEDILKEVRYALLIGSPGSTNKSLMSLHETIIDKGLEVINIGSLRDFLDFRRKHKKEKVLLVKSPIPNQAEKPILAFLRHGYLYAYYTLWRER | not soluble
MGSDKIHHHHHHMANFAYEVFSTVVAQHTFYQAAATLNVTPSAVSHSINQLEKELGFPLFIRNRSGVELTSDGRQVLPYVQEILNTESNLRQVADNIQGLHSGSVRIGGFSSVCINWLPRIIREFNHKYPDIKISVMQGNFNEITNWAKIGTIDIGFTSMPVNENLLVHSLINDPIYCVTPADFIPENGEFITTDDVADKNFILQQSDYDRDTKLALDHYHVTNNFLRFSIDDQSIISMVESGLGMGILPQLALRKLTGDVNTFSFAEPYNREIALVANKTQAAAPSTAIMIRAIKQFLTKEYPDQMLWQ | not soluble
MTSDNKQEYTIHIFGQDITSQDGLFRLDEIRRVGIQIGKVEDNRSTEVARFMRTKAGRSLTNPENGFVKKINMGHLGTSWLADPVAAIEFGRWLDLGYGLAVTRAFVSMTSSATVQSAVASAEDIKPETKEFIQRHGTGLYIAGREVSQAEYSDYQAVTAGRCEWR | not soluble
MAEAAQAPQQQFAIQRIYLKDVSFEAPSSPVMFQKEWNPDVKLDLDTQSRELGQGVYEVVLRLTVTVKNAEETAFLCEVQQAGIFSAEQMEAGQLAHCLGAFCPNILFPYARETISSLVVKGTFPQLNLAPVNFDALFMNYLQQQAQEGATANA | not soluble
MSLDLKLGGQVILVVGGAGTIGSEVVKLLTEEGATAVAASRSTPLSIDASDEASVRAGIDQVIAEHGRLDGLVVSSAPAAQTLSAETADDPDTVLAAIEGKAITFMKAATVALEKMREAGHGRIVALSGMNSYKTLSTTASARNAALNVVVKNLADRHAGTGITVNAISPGFVVAEPDAEVNRANGDTTVEEVAEAIAFLLSPRTASISGEIISVGHKAKGEGHHHHHH | not soluble
MGHHHHHHSHPQLLHFVDQYREQLIARVTSVEVVLDKLHGQVLSQEQYERVLAENTRPSQMRKLFSLSQSWDRKCKDGLYQALKETHPHLIMELWEKG | not soluble
MGSDKIHHHHHHIETYNPAEVTFPENVAKVLIVNNAVPQPEDAGYEYTLQGERQDTCKAKADSALFDACRTLGEAIVEASYFNDVLLYHDAVRKDNQAFLDTKLTQGQVASLCDETGADAVISIDRLLFDMKKSVGTLGEGYVMGMIDVQMAGVIRSYVPDREAPLATVHMKDSIYWAESADYMPILDKVLPSPENALRGAGKYFGAKVYANFVPHWEKETRWYFTGMGSRWKEASAYAANEKWDMAEDRWSGLYRGTENWKSRAKAASNLALCHEMRGALKEAYEWAHKSYDLFKRNNGDNDKSTKLLELYVQALAERIRSDKKLNVQFGED | not soluble
MSAITITEAAQAYLAELLEKQSTPGIGIRIFITQPGTQYAETCIAYCKPGEEKVEDTAIALKDFTAWIDAVSEPFLEDAVVDYATDRMGGQLTIKAPNAKVPMVNEDSPITERINYYLQTEINPGLASHGGQVSLVDVVEDNIAVLRFGGGCQGCGMVDMTLKDGVEKTLIERIPELKGVRDVTDHSNKENAYY | not soluble
MGSDKIHHHHHHMKVYLSFDYELYFGAKSGSADACIIEPAKLLLEIAARHAVHLNFFIDSGYLLALEKYSKRYPSVAYEKQQVFKQIRELAAAGHDCQLHIHPHWEDSYYDGNGWKMNTNRYRLDHFPDAQIEQIVQSYYDITKDIAGKAPIAYRAGGWCMPPWNKVSAVFKKLGIWIDSTVYEKGYLQEGQIAFDFRKAPASDQWMFETDPVTEAPFGYFLELPISSISCSPLFFWNLYVRGRLNRSLHAGMGDGLPMAQPGTKKKLLTRYTQQALSCDGYYASLLTEEFYKRKAKGEDTMVVIGHPKAQSKFSVQALDTFISTVKDSAAFARYSDLQKD | not soluble
KAEMRHMENKVLESELRQRAVVEASLLETQGRLLEQLESAPEAIICLREDQRIRFANEAACKLFKRSLEQLKRS | not soluble
